Reference: PMC3807654 (Cell Reports, 2012)

Target: human α-synuclein, monomeric, full length (human, UniProt P37840 1-140)
Test: fluorescence polarisation

B1: Atto550-labeled SERF1a (Cys-SERF1a-Cys, N- and C-terminal double cysteine mutant) (natural protein)
chain: MC(Atto550 maleimide)ARGNQRELARQKNMKKTQEISKGKRKEDSLTASQRKQRDSEIMQEKQKAANEKKSMQTREKC(Atto550 maleimide)
  Kd: 8.04 ± 2.09 µM
